The subject of this data set is VchCAST TnsB transposase (Tn6677; assayed with TnsA-TnsC and TniQ-Cascade) (Vibrio cholerae). Briefly: cell_activity. Conditions: T-RL; for binding signal: no IPTG.

The values that follow come from patent publication US20250163410.

As for “AATGTTGTTGAAACAACCATAAAGTGATAACAACGAATCAATTAAAATCATAGGCTTAATCGAAAAACAACCATATCTTGATATCGCATAAAACAACCATAAGTTGATATTTTGGTGAAAAGGATATTCCAACCTTCATAGTTTAGTAAGAA (double strand) [Left end hyperactive 4668]”, the binding signal worked out at 1.76 fold vs WT.

With “AATGTTGTTGATGCAACCATAAAGTGATATTTAATAATTATTTATAATCAGCAACTGAACCACAAAACAACCATATATTGATATCTCACAAAACAACCATAAGTTGATATTTTTGTGAATCGAGTATTTCAGCAAAACTACTGCAGTAAGAA (double strand) [Left end variant 3311]”, the binding signal (log2 fold vs WT) (second replicate -0.9350) is -1.73.

“AATGTTGTTGATGCAACCATAAAGTGATATTTAATAATTATTTATAATCAGCAACTTAACCACAAAACAACCAGATATTGATATCTCACAAAACAACCATAAGTTGATATTTTTGTGAATCGAGTATTTCAGCAAAACTACTGCAGTAAGAA (double strand) [Left end variant 3260]”: the binding signal (log2 fold vs WT) (second replicate -0.7874) was -1.91.

On to “AATGTTGTTGATGCAACCATAAAGTGATATTTAATAATTATTTATAATCAGCAACTTAACCACAAAACAACCATATATTCATATCTCACAAAACAACCATAAGTTGATATTTTTGTGAATCGAGTATTTCAGCAAAACTACTGCAGTAAGAA (double strand) [Left end variant 3243]”, for which, under “second replicate -1.5930”, the binding signal (log2 fold vs WT) was -2.53.

As to “AATGTTGTTGATGCAACCATAAAGTGATATTTAATAATTATTTATAATCAGCAACTTAACCACAAAACAACCATATATTGATATCTCACAAAACAACCATAAGTTCATATTTTTGTGAATCGAGTATTTCAGCAAAACTACTGCAGTAAGAA (double strand) [Left end variant 3165]”, where the note is “second replicate -1.3719”, the binding signal (log2 fold vs WT) was -2.25.

Regarding “AATGTTGTTGATGCAACCATAAAGTGATATTTAATAATTATTTATAATCAGCAACTTAACCACAAAACAACCATATATTGATATCTCACAAAACAACCATAAGTTGATATTTTTGTGAATAGGATATTCCAACCTTCATAGTTTAGTAAGAA (double strand) [Left end hyperactive 4673]”, the binding signal was 1.53 fold vs WT.

For “AATGTTGTTGATGCAACCATAAAGTGATATTTAATAATTATTTATAATCAGCAACTTAACCACAAAACAACCATATATTGATATCTCACAAAACACCCATAAGTTGATATTTTTGTGAATCGAGTATTTCAGCAAAACTACTGCAGTAAGAA (double strand) [Left end variant 3195]”, the binding signal (log2 fold vs WT) (second replicate 0.7256) was determined as 0.722.

In the case of “AATGTTGTTGATGCAACCATAAAGTGATATTTAATAATTATTTATAATCAGCAACTTAACCTCAAAACAACCATATATTGATATCTCACAAAACAACCATAAGTTGATATTTTTGTGAATCGAGTATTTCAGCAAAACTACTGCAGTAAGAA (double strand) [Left end variant 3295]”, for the setting “second replicate 1.3754”, the binding signal (log2 fold vs WT) came to 0.963.

Sequence “AATGTTGTTGATGCAACCATAAAGTGATATTTACGAATCAATTAAAATCATAGGCTTAATCGAAAAACAACCATATATTGATATCTCATAAAACAACCATAAGTTGATATTTTGGTGAAAAGGATATTCCAACCTTCATAGTTTAGTAAGAA (double strand) [Left end hyperactive 4666]” showed a binding signal of 2.58 fold vs WT.

Regarding “ACATTAGTTGATACAACCATAAAATGATAATTACACCCATAAATTGATAATTATCACACCCATAAATTGATATTGCCTCTGATCATAGTCAGACCAACATTGCTACGACCCGTATTCGCACCGACAC (double strand) [Right end variant 1068]”, for the setting “second replicate -5.4441”, the binding signal (log2 fold vs WT) is -6.17.

For the sequence “ACATTCGTTGATACAACCATAAAATGATAATTACACCCATAAATTGATAATTATCACACCCATAAATTGATATTGCCTCTGATCATAGTCAGACCAACATTGCTACGACCCGTATTCGCACCGACAC (double strand) [Right end variant 1070]”, under “second replicate”, the binding signal (log2 fold vs WT) is -1.95.

Consider “ACATTGGTTGATACAACCATAAAATGATAATTACACCCATAAATTGATAATTATCACACCCATAAATTGATATTGCCTCTGATCATAGTCAGACCAACATTGCTACGACCCGTATTCGCACCGACAC (double strand) [Right end variant 1069]”, for which, where the note is “second replicate -6.7160”, the binding signal (log2 fold vs WT) was -6.61.

Regarding “ACATTTGGTGATACAACCATAAAATGATAATTACACCCATAAATTGATAATTATCACACCCATAAATTGATATTGCCTCTGATCATAGTCAGACCAACATTGCTACGACCCGTATTCGCACCGACAC (double strand) [Right end variant 1063]”, for the setting “second replicate -5.3052”, the binding signal (log2 fold vs WT) was -6.47.

For “ACATTTGTTGATACAACCATAAAATCATAATTACACCCATAAATTGATAATTATCACACCCATAAATTGATATTGCCTCTGATCATAGTCAGACCAACATTGCTACGACCCGTATTCGCACCGACAC (double strand) [Right end variant 1010]”, the binding signal (log2 fold vs WT) (second replicate -1.5090) is -1.91.

As for “ACATTTGTTGATACAACCATAAAATGATAATAACACCCATAAATTGATAATTATCACACCCATAAATTGATATTGCCTCTGATCATAGTCAGACCAACATTGCTACGACCCGTATTCGCACCGACAC (double strand) [Right end variant 990]”, the binding signal (log2 fold vs WT) (second replicate 1.0127) was 0.854.

“ACATTTGTTGATACAACCATAAAATGATAATTACACCCATAAATTGATAATTATCACACCCATAAATTGATATTGCCTCTCAGACCACATAGCTGCCATGTCCTGATCGGACGGACCGCACCGACAC (double strand) [Right end hyperactive 2701]” showed a binding signal of 1.7 fold vs WT.

Sequence “ACATTTGTTGATACAACCATAAAATGATAATTACACCCATAAATTGATAATTATCACACCCATAAATTGATATTGCCTCTCCGACCCGGAAGAGGGCGCCTAGAATTGGGAGTGGTCGCACCGACAC (double strand) [Right end hyperactive 2700]” came in with a binding signal of 1.72 fold vs WT.

Take “ACATTTGTTGATACAACCATAAAATGATAATTACACCCATAAATTGATAATTATCACACCCATAAATTGATATTGCCTCTCGCGAGAGGCCGGCAGCCGTCTGGCGTCGGGTGGCGGGCACCGACAC (double strand) [Right end hyperactive 2697]”: the binding signal amounted to 2.03 fold vs WT.

The sequence “ACATTTGTTGATACAACCATAAAATGATAATTACACCCATAAATTGATAATTATCACACCCATAAATTGATATTGCCTCTGATCAAATTGTGAGCGGATAACAATTTAGTCAGACCAGCACCGACAC (double strand) [Right end hyperactive 2695]” displayed a binding signal of 1.82 fold vs WT.

“ACATTTGTTGATACAACCATAAAATGATAATTACACCCATAAATTGATAATTATCACACCCATAAATTGATATTGCCTCTGATCAGGAATTGTGAGCGGATAACAATTTAGTCAGACGCACCGACAC (double strand) [Right end hyperactive 2693]” registered a binding signal of 2.05 fold vs WT.

As to “ACATTTGTTGATACAACCATAAAATGATAATTACACCCATAAATTGATAATTATCACACCCATAAATTGATATTGCCTCTGATCATAAATATATAAATTAATTATTAAATTAGTCAGGCACCGACAC (double strand) [Right end hyperactive 2692]”, the binding signal turned out to be 2.24 fold vs WT.

In the case of “ACATTTGTTGATACAACCATAAAATGATAATTACACCCATAAATTGATAATTATCACACCCATAAATTGATATTGCCTCTGATCATAATTGTTATCCGCTCACAATTCCAGTCAGACGCACCGACAC (double strand) [Right end hyperactive 2694]”, the binding signal was 1.89 fold vs WT.

Take “ACATTTGTTGATACAACCATAAAATGATAATTACACCCATAAATTGATAATTATCACACCCATAAATTGATATTGCCTCTGATCATATTTAATAATTAATTTATATATTTAAGTCAGGCACCGACAC (double strand) [Right end hyperactive 2691]”: the binding signal came out at 2.63 fold vs WT.
